Experimental data as given in publication PMC9866218 (2023).

Tests used:
KV1.2 [1] = target: T1, KV1.2 (Homo sapiens, UniProt P16389); assay: whole-cell patch clamp (Hill fit of concentration-response)
KCa3.1 = KCa3.1 (Homo sapiens, UniProt O15554); assay: as above
KCa2.2 = KCa2.2 (Homo sapiens, UniProt Q9H2S1); assay: as above
KV1.2 [2] = target: T1, KV1.2; assay: whole-cell patch clamp (koff/kon block kinetics)

T1 sequence (P16389 whole entry): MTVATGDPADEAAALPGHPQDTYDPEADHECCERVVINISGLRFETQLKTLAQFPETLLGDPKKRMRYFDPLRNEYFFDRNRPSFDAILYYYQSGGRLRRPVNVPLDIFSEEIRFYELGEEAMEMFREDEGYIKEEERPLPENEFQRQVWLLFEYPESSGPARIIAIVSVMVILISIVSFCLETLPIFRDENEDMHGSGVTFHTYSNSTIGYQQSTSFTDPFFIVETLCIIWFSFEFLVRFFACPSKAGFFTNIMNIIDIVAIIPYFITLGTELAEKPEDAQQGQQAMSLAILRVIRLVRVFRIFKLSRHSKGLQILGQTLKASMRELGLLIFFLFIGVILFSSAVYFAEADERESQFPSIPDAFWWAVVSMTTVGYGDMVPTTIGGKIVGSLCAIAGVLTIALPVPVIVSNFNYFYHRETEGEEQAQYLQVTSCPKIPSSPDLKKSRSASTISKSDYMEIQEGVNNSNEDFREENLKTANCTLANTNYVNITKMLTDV
Chain of KCa2.2 (Q9H2S1 whole entry): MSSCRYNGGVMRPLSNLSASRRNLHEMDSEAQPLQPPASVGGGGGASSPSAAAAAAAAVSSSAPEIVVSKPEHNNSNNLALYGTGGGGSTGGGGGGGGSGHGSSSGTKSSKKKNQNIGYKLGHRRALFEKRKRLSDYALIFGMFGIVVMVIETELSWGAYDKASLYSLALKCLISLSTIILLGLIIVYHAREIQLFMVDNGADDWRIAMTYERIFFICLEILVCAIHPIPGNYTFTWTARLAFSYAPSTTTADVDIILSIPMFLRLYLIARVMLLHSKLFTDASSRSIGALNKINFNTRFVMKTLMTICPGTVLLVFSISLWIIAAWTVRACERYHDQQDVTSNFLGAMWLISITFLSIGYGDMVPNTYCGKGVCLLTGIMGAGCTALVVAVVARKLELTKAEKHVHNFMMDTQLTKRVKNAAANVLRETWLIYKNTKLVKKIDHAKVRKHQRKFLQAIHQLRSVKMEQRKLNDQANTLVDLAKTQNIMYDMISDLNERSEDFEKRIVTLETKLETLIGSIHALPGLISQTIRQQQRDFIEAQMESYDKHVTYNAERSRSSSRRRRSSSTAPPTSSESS
Chain of KCa3.1 (O15554 whole entry): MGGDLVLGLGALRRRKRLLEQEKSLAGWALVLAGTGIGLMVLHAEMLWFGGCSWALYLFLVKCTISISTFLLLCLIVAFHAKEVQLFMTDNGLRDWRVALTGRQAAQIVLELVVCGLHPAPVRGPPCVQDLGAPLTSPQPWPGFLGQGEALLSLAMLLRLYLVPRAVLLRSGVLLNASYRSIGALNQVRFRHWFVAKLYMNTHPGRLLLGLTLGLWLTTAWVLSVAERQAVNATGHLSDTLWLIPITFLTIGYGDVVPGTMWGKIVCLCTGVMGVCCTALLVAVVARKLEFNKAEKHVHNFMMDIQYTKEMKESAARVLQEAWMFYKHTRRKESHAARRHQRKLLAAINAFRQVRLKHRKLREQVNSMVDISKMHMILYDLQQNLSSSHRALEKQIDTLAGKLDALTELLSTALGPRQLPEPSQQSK

TFINHKCKSSSECLPACKAAIGRASGKCINSTCKCYY [Cm39 (α-KTx 4.8)]
Kd (KV1.2 [1]): 65 nM | Kd (KCa3.1): 57.7 nM | Kd (KCa2.2): 502 nM | Kd (KV1.2 [2]): 87.8 nM
